The results in this text go back to the supplement of paper PMC7877785.

± gives the uncertainty stated by the source.

The nature of the series: self-splicing fitness, log relative to wild type (ln ratio); higher = more splicing; Tetrahymena group I intron in knt gene, E. coli kanamycin selection, DiMSum; sequences stand for … in CUCUCU…GGAGGGAAAAGUUAUCAGGCAUGCACCUGGUAGCUAGUCUUUAAACCAAUAGAUUGCAUCGGUUUAAAAGGCAAGACCGUCAAAUUGCGGGAAAGGGGUCAACAGCCGUUCAGUACCAAGUCUCAGGGGAAACUUUGAGAUGGCCUUGCAAAGGGUAUGGUAAUAAGCUGACGGACAUGGUCCUAACCACGCAGCCAAGUCCUAAGUCAACAGAUCUUCUGUUGAUAUGGAUGCAGUUCACAGACUAAAUGUCGGUCGGGGAAGAUGUAUUCUUCUCAUAAGAUAUAGUCGGACCUCUCCUUAAUGGGAGCUAGCGGAUGAAGUGAUGCAACACUGGAGCCGCUGGGAACUAAUUUGUAUGCGAAAGUAUAUUGAUUAGUUUUGGAGUACUCGUGGUCG
The method in brief: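 Pooled colonies went to amplicon sequencing on an Illumina HiSeq 2500 after six replicate transformations. The plates were LB agar with 100 μg/mL carbenicillin, 50 μM IPTG and 0.2% rhamnose, with or without 25 μg/mL kanamycin, incubated overnight at 37°C or 30°C. The E. coli BL21(DE3) library had all eight P1ex-region intron nucleotides randomised, the intron placed in the knt kanamycin-resistance gene on pET-22b(+). DiMSum fitness is the error-weighted combination of replicate fold changes, kanamycin against none, normalised to wild type.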

As to UUGCAGCAAUAUUACGUGUC, the “self-splicing fitness (ln)” value is -3.3 ± 0.17 (30 °C) and -3.15 ± 0.24 (37 °C).

With UCACAGCAAUAUUACGUUUU, the “self-splicing fitness (ln)” value reads like this: (30 °C) -3.72 ± 0.14; (37 °C) -3.09 ± 0.15.

For UGUGAGCAAUAUUACGCAGA, the “self-splicing fitness (ln)” value reads like this: (30 °C) -2.79 ± 0.29; (37 °C) -1.83 ± 0.48.

GGGUAGCAAUAUUACGAGAG: the “self-splicing fitness (ln)” value by setting is: (30 °C) -3.56 ± 0.28; (37 °C) -2.26 ± 0.2.

As for CACAAGCAAUAUUACGUGCA, the “self-splicing fitness (ln)” value is -2.56 ± 0.11 (30 °C) and -1.55 ± 0.093 (37 °C).

As to UACAAGCAAUAUUACGAAAC, for the setting “37 °C”, the “self-splicing fitness (ln)” value was -1.61 ± 0.32.

For UUCUAGCAAUAUUACGUACA, the “self-splicing fitness (ln)” value reads like this: (30 °C) -1.39 ± 0.19; (37 °C) -0.376 ± 0.22.

In the case of UGCAAGCAAUAUUACGUCGG, the “self-splicing fitness (ln)” value (30 °C) is -2.03 ± 0.086 and the “self-splicing fitness (ln)” value (37 °C) was -0.943 ± 0.1.

AACGAGCAAUAUUACGACAC: the “self-splicing fitness (ln)” value (37 °C) was -1.46 ± 0.32.

For the sequence UCCGAGCAAUAUUACGGAUU, the “self-splicing fitness (ln)” value (30 °C) was -3.52 ± 0.29 and the “self-splicing fitness (ln)” value (37 °C) was -2.45 ± 0.26.

Regarding AGGCAGCAAUAUUACGCUGG, the “self-splicing fitness (ln)” value is -3.73 ± 0.22 (30 °C) and -1.2 ± 0.17 (37 °C).

Turning to CGGUAGCAAUAUUACGGAAU, the “self-splicing fitness (ln)” value (37 °C) is -1.93 ± 0.47.

Regarding AAUAAGCAAUAUUACGAGAC, the “self-splicing fitness (ln)” value is -3.14 ± 0.47 (30 °C) and -1.18 ± 0.23 (37 °C).

Regarding ACUGAGCAAUAUUACGAUGC, the “self-splicing fitness (ln)” value was -2.69 ± 0.16 (30 °C) and -0.416 ± 0.15 (37 °C).

In the case of ACAAAGCAAUAUUACGUUUA, the “self-splicing fitness (ln)” value (30 °C) was -3.55 ± 0.13 and the “self-splicing fitness (ln)” value (37 °C) is -0.482 ± 0.088.

In the case of GCUUAGCAAUAUUACGCAUU, the “self-splicing fitness (ln)” value by setting is: (30 °C) -0.542 ± 0.095; (37 °C) -0.78 ± 0.12.

Take UAAGAGCAAUAUUACGUGGC: the “self-splicing fitness (ln)” value runs as follows: (30 °C) -4.44 ± 0.27; (37 °C) -2.2 ± 0.2.

UAUGAGCAAUAUUACGGUUG: the “self-splicing fitness (ln)” value was -4.24 ± 0.43 (30 °C) and -2.38 ± 0.45 (37 °C).

With GGGUAGCAAUAUUACGAAUC, the “self-splicing fitness (ln)” value was 0.0354 ± 0.3 (30 °C) and -0.646 ± 0.36 (37 °C).

For the sequence AGAGAGCAAUAUUACGGAAG, the “self-splicing fitness (ln)” value reads like this: (30 °C) -3.74 ± 0.33; (37 °C) -1.32 ± 0.22.

For CCUAAGCAAUAUUACGCUGU, the “self-splicing fitness (ln)” value by setting is: (30 °C) -3.8 ± 0.33; (37 °C) -2.61 ± 0.33.

With GCACAGCAAUAUUACGUCAG, the “self-splicing fitness (ln)” value is -2.44 ± 0.12 (30 °C) and -2.48 ± 0.21 (37 °C).

For the sequence AGAAAGCAAUAUUACGAGCC, the “self-splicing fitness (ln)” value (30 °C) was -2.01 ± 0.17 and the “self-splicing fitness (ln)” value (37 °C) is -0.816 ± 0.21.

Turning to AGGUAGCAAUAUUACGACUG, the “self-splicing fitness (ln)” value was -0.0476 ± 0.015 (30 °C) and -0.0252 ± 0.034 (37 °C).

As to CGGUAGCAAUAUUACGGGCC, the “self-splicing fitness (ln)” value (30 °C) was -3.47 ± 0.36.

Turning to GACCAGCAAUAUUACGGAAA, the “self-splicing fitness (ln)” value is -0.538 ± 0.086 (30 °C) and 0.437 ± 0.096 (37 °C).

On to CAACAGCAAUAUUACGUACC, for which the “self-splicing fitness (ln)” value is, setting by setting: (30 °C) -2.7 ± 0.12; (37 °C) -0.824 ± 0.12.

Regarding GAAAAGCAAUAUUACGUCAA, the “self-splicing fitness (ln)” value was -2.62 ± 0.19 (30 °C) and -1.11 ± 0.14 (37 °C).

UUCAAGCAAUAUUACGCCUC: the “self-splicing fitness (ln)” value was -1.59 ± 0.14 (30 °C) and -1.34 ± 0.16 (37 °C).

Turning to UAAUAGCAAUAUUACGAAUG, the “self-splicing fitness (ln)” value is -1.37 ± 0.11 (30 °C) and -0.382 ± 0.11 (37 °C).

Regarding ACUGAGCAAUAUUACGCAUA, the “self-splicing fitness (ln)” value runs as follows: (30 °C) -2.14 ± 0.31; (37 °C) -1.77 ± 0.44.

For the sequence GGAGAGCAAUAUUACGGUUC, the “self-splicing fitness (ln)” value (30 °C) was -1.36 ± 0.38.

As for CUGAAGCAAUAUUACGGUUA, the “self-splicing fitness (ln)” value is, setting by setting: (30 °C) -4.2 ± 0.35; (37 °C) -2.52 ± 0.28.

With ACGUAGCAAUAUUACGCCUA, the “self-splicing fitness (ln)” value reads like this: (30 °C) -0.946 ± 0.1; (37 °C) -0.412 ± 0.099.

With AGUAAGCAAUAUUACGCUGU, the “self-splicing fitness (ln)” value was -2.78 ± 0.22 (30 °C) and -1.88 ± 0.3 (37 °C).
